{"source": "the nanobody polyreactivity screen of Harvey et al. (2022)"}
{"assay": "yeast display, Sf9 membrane polyspecificity reagent, FACS + sequencing; frameworks hold sequencing errors", "how_it_was_run": "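In a synthetic yeast display library (Saccharomyces cerevisiae BJ5465), nanobody expression was induced with galactose for 36–48 hours. FACS gates were set low and high (top ~1%) using anti-HA fluorescence for expression and streptavidin fluorescence for binding of the Sf9 membrane reagent. Each polyreactivity label is drawn from the gate of origin.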"}
{"sequence": "QVQLVESGGGLVQAGGSLRLSCAASGRIFTRYTMGWYRQAPGKDRELVAAITRGGSTYYADSVKGRFTISRDNANNTVYLQMNSLKPEDTAVYYCATQVWGGRYNYWGQGTQVTVTS", "polyreactivity (PSR sort gate)": "high polyreactivity"}
{"sequence": "QVQLVESGGGLVQAGGSLRLSCAASGRIFTRYTMGWYRQAPGKERELVAAISSSDSSTYYADSVKGRFTISRDNAKNTVYLQMNSLKPEDTAVYYCNADRLFYEIYDYGAVRIGYDYWGQGTQVTVSS", "polyreactivity (PSR sort gate)": "low polyreactivity"}
{"sequence": "QVQLVESGGGLVQAGGSLRLSCAASGRIFTSNAMGWYRQAPGKERELVAAISGSGGRTYYADSVKGRFTISRDNAKNTVYLQMNSLKPEDTAVYYCAVGTRVKYDYWGQGTQVTVSS", "polyreactivity (PSR sort gate)": "high polyreactivity"}
{"sequence": "QVQLVESGGGLVQAGGSLRLSCAASGRIFTSNAMGWYRQAPGKERELVAAISSSSGSTYYADSVKGRFTISRDNAKNTVSLQMNSLKPEDTAVYYCAARTWRVSGTYKYDYWGQGTQVTVSS", "polyreactivity (PSR sort gate)": "low polyreactivity"}
{"sequence": "QVQLVESGGGLVQAGGSLRLSCAASGRIFTSNTMGWYRQAAGKEGELVAAITSSGGSMYYADSVKGRFTISRDNAKNTVYLQMNSLKPEDTAVYYCAADTIGYHYWYDYWGQGTQVTVSS", "polyreactivity (PSR sort gate)": "low polyreactivity"}
{"sequence": "QVQLVESGGGLVQAGGSLRLSCAASGRIFTTNAMGWYRQAPGKERELVAAITYSGGTTYYADSVKGRFTISRDNAKNTVYLQLNSLNPEDTAVYYCAADVKFSTPYDYWGQGSQVTVSS", "polyreactivity (PSR sort gate)": "low polyreactivity"}
{"sequence": "QVQLVESGGGLVQAGGSLRLSCAASGRIFTTYAMGWYRQAPGKERELVATITTTDTRTYADSVKGRFTISRDNAKNTVYLQMNSLKPEDTAVYYCAKDRLNKGRYYRAASDYWGQGTQVTVSS", "polyreactivity (PSR sort gate)": "low polyreactivity"}
{"sequence": "QVQLVESGGGLVQAGGSLRLSCAASGRIFTVNAMGGYRQAPGKERELVAAITFSGANTYYADSVKGRFTISRDNAKNTVFLQMNSLKPEDTAVYYCAGDPPNGAEYYWGQGTQVTVSS", "polyreactivity (PSR sort gate)": "high polyreactivity"}
{"sequence": "QVQLVESGGGLVQAGGSLRLSCAASGRIFTVYAMGWYRQAPGKERELVAAISGRGGRTYYADSVKGRFTISRDNAKNTVYLQMNSLKPEDTAVYYCNADTLTLTRPDGDIHTVWMDYWGQGTQVTVSS", "polyreactivity (PSR sort gate)": "low polyreactivity"}
{"sequence": "QVQLVESGGGLVQAGGSLRLSCAASGRIFTVYAMGWYRQAPGKERELVAAISSSGGSTYYADSLKGRFTISRDNAKNSVFLQMNSLKPEDTAVYYCAKPRTYDKDKYDYWGQCTQVTVSS", "polyreactivity (PSR sort gate)": "high polyreactivity"}
{"sequence": "QVQLVESGGGLVQAGGSLRLSCAASGRIFTVYAMGWYRQAPGKERELVAAITRGGGGTYYADSVKGRFTISRDNAKNTVYFQMNSLKPEETAVYYCAAAYRGDRWSYRVDYWGQGTQVTVSS", "polyreactivity (PSR sort gate)": "high polyreactivity"}
{"sequence": "QVQLVESGGGLVQAGGSLRLSCAASGRIFTWYAKGWYRQAPGKERELVAAISWSGGRTYYADSVKGRFTISRDNAKNTVYLQMNSLKPEDTAVYYCNAVPSVRWRYDYWGQGTQVTVSS", "polyreactivity (PSR sort gate)": "high polyreactivity"}
{"sequence": "QVQLVESGGGLVQAGGSLRLSCAASGRIFTYDAMGWYRPAPGKERELLATITSGGSTNYADSVKGRFTISRDNAMNTVYLQMNSLKPEDTAVDYCATRKYRVPRSYYWGQGTQVTVSS", "polyreactivity (PSR sort gate)": "high polyreactivity"}
{"sequence": "QVQLVESGGGLVQAGGSLRLSCAASGRIFTYNAMGGYRQAPGKESEFVAAISSGGSTTYADSVKGRFTISRDNAKNTVYLQMISLKPEDTAVYYCAARGWRFAIIQYEYWGQGTQVTVSS", "polyreactivity (PSR sort gate)": "low polyreactivity"}
{"sequence": "QVQLVESGGGLVQAGGSLRLSCAASGRIFTYYAMGWYRQAPGKERELVAAISSGGSTYYADSVKGRFTISRDNAKNTVYLQMNSLKPEDTAVYYCAADSIYYFPYDYWGQGTQVTVSS", "polyreactivity (PSR sort gate)": "high polyreactivity"}
{"sequence": "QVQLVESGGGLVQAGGSLRLSCAASGRIFTYYAMGWYRQAPGKERELVAGISGSGTSTYYADSVKGRFTISRDNAKNTVYLQMNSLKPEDTAVYYCAAIRRQNGLWDYYYWGQGTQVTVSS", "polyreactivity (PSR sort gate)": "low polyreactivity"}
{"sequence": "QVQLVESGGGLVQAGGSLRLSCAASGRIFTYYAMGWYRQAPGKERELVATISSSGSTNYADSVKGRFTISRDNAKNTVYLQMNSLKPEDTAVYYSAKKTRRRYDVKYDYWGQGTQVTVSS", "polyreactivity (PSR sort gate)": "low polyreactivity"}
{"sequence": "QVQLVESGGGLVQAGGSLRLSCAASGRIFTYYAMGWYRQAPGKVRELVAAISSGGSTYYADSVKGRFTISRDNAKTTVYLQMNSLTPEDTAVYYCAAEPSYYPYLSPTYGYWGQGTQVTVSS", "polyreactivity (PSR sort gate)": "low polyreactivity"}
{"sequence": "QVQLVESGGGLVQAGGSLRLSCAASGRIFTYYAMVWYRQAPGKERELVAAITGSGTSTYYADSVKGRFTISRDNAMNTVFLLMNSLKPEDTAVYYCAARNSFSRYYYWGQGTQVTVSS", "polyreactivity (PSR sort gate)": "high polyreactivity"}
{"sequence": "QVQLVESGGGLVQAGGSLRLSCAASGRIFTYYGMGWYRQAPGKEWELVAAISSSGDSTFYADSVKGRFTISRDNAKNTVYLQMNSLKPEDTAVYYCAADYYYVWYDYWGQGTQVTVSS", "polyreactivity (PSR sort gate)": "low polyreactivity"}
{"sequence": "QVQLVESGGGLVQAGGSLRLSCAASGRIFTYYTKGWSRQAPGKERELVAAITRGGITNYADSVKGRFTISRDNAKNTVYLQMNSLKPEDTAVYYCNAVARVYSEGIRYGYWGQGTQVTVSS", "polyreactivity (PSR sort gate)": "high polyreactivity"}
{"sequence": "QVQLVESGGGLVQAGGSLRLSCAASGRIFVDNAMGWYRQAPGKERELVAAITRGGSTYADSVKGRFTISRDNAKNTVYLQMNSLKPEDTAVYYCAADLWSVPFTVYTFGIFYYWGQGTQVTVSS", "polyreactivity (PSR sort gate)": "low polyreactivity"}
{"sequence": "QVQLVESGGGLVQAGGSLRLSCAASGRIFVDNTMGWYRQAPGKERELVAVITSGGSTNYADSVKGRFTISRDNAKNTVYLQMNSLKPEDTAVYYCATEPGGYRFDDRPFQYGYWGQGTQVTVSS", "polyreactivity (PSR sort gate)": "low polyreactivity"}
{"sequence": "QVQLVESGGGLVQAGGSLRLSCAASGRIFVDYAMGWNRQAPGKERELVAAISWSGRTYYADSVKGRFTISRDNAKNTVYLQMNSLKPEDTAVYYCNAAYHYYGKYDYWGQGTQVTVSS", "polyreactivity (PSR sort gate)": "high polyreactivity"}
{"sequence": "QVQLVESGGGLVQAGGSLRLSCAASGRIFVDYVMGWYRQAPGKERELVARITWIGGNTYYADSVKGRFTISRDNAKNTVYLQMKSLKPEETAVYYCNAGLTLLSRRHEGWYGYDYWGQGTQVTVSS", "polyreactivity (PSR sort gate)": "low polyreactivity"}
{"sequence": "QVQLVESGGGLVQAGGSLRLSCAASGRIFVGYALGWYRQAPGKERELVAAINRSGSSTYYADSVKGRFTISRDNAKNTVYLQMNSLKPEDTAVYYCNARSGNRYGPRYDYWGQGTQVTVSS", "polyreactivity (PSR sort gate)": "high polyreactivity"}
{"sequence": "QVQLVESGGGLVQAGGSLRLSCAASGRIFVGYAMGWYRPAPGKERELVAAINRSGSCTYYADSVKVRFTISRDNAKITGYLQMNSLKPEDTAVYYCNARSGNRYGPRYDDWGQGTQVTVSS", "polyreactivity (PSR sort gate)": "high polyreactivity"}
{"sequence": "QVQLVESGGGLVQAGGSLRLSCAASGRIFVGYAMGWYRQAPGKEREFVAAISRNGGRTYYADSVKGRFTISRDNAKNTVYLQMNSLKPEDTAVYYCATEKYVPSPGGYWGQGTQVTVSS", "polyreactivity (PSR sort gate)": "high polyreactivity"}
{"sequence": "QVQLVESGGGLVQAGGSLRLSCAASGRIFVGYAMGWYRQAPGKERELVAAINRSGSSTYYADSVKGRFTISRDNAKNTVYLQMNSLKPEDTAVYYCNAARRQGNRYTYDYWGQGTQVTVSS", "polyreactivity (PSR sort gate)": "high polyreactivity"}
{"sequence": "QVQLVESGGGLVQAGGSLRLSCAASGRIFVGYAMGWYRQAPGKERELVAAINRSGSSTYYADSVKGRFTISRDNAKNTVYLQMNSLKPEDTAVYYCNARSANRYGPRYDYWGQGTQVTVSS", "polyreactivity (PSR sort gate)": "high polyreactivity"}
{"sequence": "QVQLVESGGGLVQAGGSLRLSCAASGRIFVGYAMGWYRQAPGKERELVAVISGRGGSTYYADSVKGRFTISRDNAKNTVYLQMNSLKPEDTAVYYCATDYYGPDYPLDYWGQGTQVTVSS", "polyreactivity (PSR sort gate)": "low polyreactivity"}
{"sequence": "QVQLVESGGGLVQAGGSLRLSCAASGRIFVHYVMGWYRQAPGKERELVAAISRSGGRTYYADSVKGRFTISRDNAKNTVYLQMNSLKPEDTAVYYCNVYHWSRVFAIDYYWGQGTQVTVSS", "polyreactivity (PSR sort gate)": "high polyreactivity"}
{"sequence": "QVQLVESGGGLVQAGGSLRLSCAASGRIFVINVMGWSRQAPGKERELVATITWSVGSTYYADSVKGRFTISRDTAKNTVYLQMNSLKPEDTAVYYCAAASSFKFDYWGQGTQVTVSS", "polyreactivity (PSR sort gate)": "low polyreactivity"}
{"sequence": "QVQLVESGGGLVQAGGSLRLSCAASGRIFVKYAMGWYRQATGKERELVAAISKSGGSTYYADSVKGRFTISRDNAKNTVYLQMNSLKPEDTAVYYCATRSRDQYSVSYRLDYWGQGTQVTVSW", "polyreactivity (PSR sort gate)": "low polyreactivity"}
{"sequence": "QVQLVESGGGLVQAGGSLRLSCAASGRIFVKYTMGWYRQAPGKERELVAAIDFDTDSTYYADSVKGRFTISRDNAMNTVYLQMNSLKPEDTAVYYCAADQYYYWYTHQSIGYDYWGQGTQVTVSS", "polyreactivity (PSR sort gate)": "low polyreactivity"}
{"sequence": "QVQLVESGGGLVQAGGSLRLSCAASGRIFVLYAMGWYRQAPGKERELVAAISTSGGSTYYADSVKGRFTISRDNAKNTYYLQMNSLKPEDTAVYYCAADRSARFLFIQYYPYGMDYWGQGTQVTVSS", "polyreactivity (PSR sort gate)": "high polyreactivity"}
{"sequence": "QVQLVESGGGLVQAGGSLRLSCAASGRIFVNYAMGWYRQAPGKEREFVAGIRVNGGSTYYADSVKGRFTISRDNAKNTVYLQMNSLKPEDTAVYYCAKAYPGTYREYDYWGQGTQVTVSS", "polyreactivity (PSR sort gate)": "high polyreactivity"}
{"sequence": "QVQLVESGGGLVQAGGSLRLSCAASGRIFVNYAMGWYRQEPGKERELVAAITSDGSTSYADSVKGRFTISRDTAKNTVYLQMNSLKPDDPAVYYCAKDFFEHSPVSHTYSSSKYDYWGEGTQVTVSS", "polyreactivity (PSR sort gate)": "low polyreactivity"}
{"sequence": "QVQLVESGGGLVQAGGSLRLSCAASGRIFVPYAMGWYRQAPGKERELVAGITSGSRTNYADSVKGRFTISRDNAKYTVYLQMNSLKPEDTEVYYCNALDFRYYGIFDYWGQGTQVTVSS", "polyreactivity (PSR sort gate)": "high polyreactivity"}
{"sequence": "QVQLVESGGGLVQAGGSLRLSCAASGRIFVQYAMGWNRQAPGKERELVAAISGSGGRTYYADSVKWRFTISRDNAKNTVYLQMNSLKTEDTAVFYCAARSSTGVSFWKPYYYWGQGTQVTLSS", "polyreactivity (PSR sort gate)": "high polyreactivity"}
{"sequence": "QVQLVESGGGLVQAGGSLRLSCAASGRIFVRYAMGWYRQAPGKERELVAAISKSGGSTYYADSVKGRFTISRDNAKNTVYLQMNSLKPEDTAVYYCNALVRRRPGYIRYDYWGQGTQVTVSS", "polyreactivity (PSR sort gate)": "low polyreactivity"}
{"sequence": "QVQLVESGGGLVQAGGSLRLSCAASGRIFVSNAMGWYRQAPGKERELVAGITWTSGSTYYADSVKGRFTISRDNAKNTVYLQMNSLKPEDTAVYYCAAEYCYGNAFDYWGQGTQVTVSS", "polyreactivity (PSR sort gate)": "low polyreactivity"}
{"sequence": "QVQLVESGGGLVQAGGSLRLSCAASGRIFVSNAMGWYRQAPGKERELVASISWSGGSTYYADSVKGRFTISRDNAKNTVYLQMNSLKPEDTAVYYCNRVRYPRQGFRLYYWGQGTQVTVSS", "polyreactivity (PSR sort gate)": "high polyreactivity"}
